The text below walks through data of the RNAGym collection of RNA variant scans (doi:10.7554/elife.90254).

To fix the notation:
B1: OR4K15 (parent)
chain: GUUAACGGUCAUAGGCCAUGGAAACUAGGAGCACCAUUUCGCUGCCAGUGAAGAAAUGAACAAAGAAAAUCUGGGCCAGGCAGGCAUCAAAAGAAAUAGUCUUGCGCUCAACCAGAAAGUCUGUAAUCAUUUUAAGGGUA

The variants in this series derive from B1. The series can be described thus: self-cleavage, relative activity (ratio to wild type); higher = more cleavage; in vitro, sequencing; the parent is a self-cleaving ribozyme.
For the variant A47U, the self-cleavage was 0.72. To C35U U43A belongs 0.61; to A55U U102C, 1.73; to A66G U100A, 0.58.

For A111G A135G, the self-cleavage came to 0.02. To C101A A114G belongs 0.02.

Regarding G106A A118G, the self-cleavage was 0.02. To A63G A68C belongs 2.21; to C109A A118C, 0.14. As for G48A, the self-cleavage stood at 1.44. In the case of U108A, the self-cleavage came out at 0.02. With A110G A129G, the self-cleavage is 0.11. With A11G U124A, the self-cleavage turned out to be 0.66. As for U9C A140G, the self-cleavage worked out at 1.33. To A18U A116U belongs 0.15. To U43C A126C belongs 1.95. To G75A U120C belongs 0.02; to A82C A134G, 0.17; to A96U A135G, 1.39. A98G U100C: the self-cleavage worked out at 2.04.

On to U2G U103C, for which the self-cleavage amounted to 0.85. To A47U A67G belongs 1.23; to A118U A125G, 0.86; to A68G C105G, 0.03.

Regarding U49C A66G, the self-cleavage came to 1.55.

Turning to U3G A24G, the self-cleavage was determined as 0.8. To A82U A92G belongs 0.22. In the case of U9C A62U, the self-cleavage was 2.18. To A24U A54G belongs 1.46; to G44A C77U, 2.17; to U122A A125U, 2.05.

Consider A52U A110G, for which the self-cleavage was found to be 0.19. To U120C A125U belongs 1.38; to A89G A91U, 2.19; to A30C A116G, 0.89. A11G U70C: the self-cleavage came out at 0.76.

With A82U A98G, the self-cleavage amounted to 0.06.

Consider A82U A125G, for which the self-cleavage amounted to 0.03. As to A67G A89C, the self-cleavage is 1.63. To U57A A59G belongs 0.5. To C71U U124C belongs 0.06; to U39C C81G, 0.16; to G48A U108A, 0.01. A67U U130C: the self-cleavage stood at 1.04.

Regarding A5G C121A, the self-cleavage was found to be 1.89.

Take U39A A60G: the self-cleavage stood at 0.99. To A33U A47U belongs 0.84. To U9C G58A belongs 1.29. As for A64G U87C, the self-cleavage is 0.87. To A62C A66G belongs 1.51.

In the case of G7A U131G, the self-cleavage worked out at 1.7. To A5G U124A belongs 0.54; to U43C G138A, 2.16.

In the case of U9C A47U, the self-cleavage was determined as 1.1. To A30G A66U belongs 1.22; to A22G A140U, 0.8; to A62G A111G, 0.02. To A30U U49A belongs 1.3; to U49C U57A, 1.03; to A36U A59G, 1.26. As for A98U A118U, the self-cleavage turned out to be 1.62. As for C107A, the self-cleavage turned out to be 0.03.

Take C32U U72C: the self-cleavage worked out at 0.2. For the variant A4U U108C, the self-cleavage stood at 0.09.

Take U38C A89C: the self-cleavage was 1.6. To U39C U122C belongs 1.84. For C34U A60G, the self-cleavage amounted to 1.29. To U38C U57G belongs 1.4; to U87C C101A, 0.14; to A68U A69G, 0.98. To G1C A135G belongs 1.85. Regarding A24U A110G, the self-cleavage stood at 0.13. To A33G A111G belongs 0.02. As for A67G U97A, the self-cleavage came out at 1.71. In the case of U19A U100C, the self-cleavage was determined as 1.68.

In the case of A11G A86G, the self-cleavage turned out to be 0.76.

Turning to A64U A134G, the self-cleavage worked out at 1.44.

Turning to A55U U122A, the self-cleavage came out at 0.96. To U57A U131C belongs 1.07. Take U70C U100A: the self-cleavage came to 0.18. As for A55G A92U, the self-cleavage is 1.65. To A114U U130C belongs 0.01; to U87A U122A, 1.73.

As to C81A U132C, the self-cleavage is 0.29.

As to C40A A67G, the self-cleavage stood at 1.7. To U3C U39C belongs 1.15; to A54G U132A, 1.73.

In the case of U108G A126G, the self-cleavage amounted to 0. Take A118G A125G: the self-cleavage is 0.1. Take A89C A96G: the self-cleavage turned out to be 2.38. To A33G A94U belongs 0.59. For A114G U124G, the self-cleavage amounted to 0.21. To U57A A125U belongs 1.1; to A55G U124C, 0.5; to U72C A91G, 0.05. To A22G belongs 1.09. As to A114C U122G, the self-cleavage stood at 0.01.

As to C34U A125G, the self-cleavage turned out to be 0.63.

Regarding A126C U130C, the self-cleavage came out at 0.47. To A56G A66C belongs 1.76; to U19A A89U, 0.85; to A22G A24U, 1.27. To A129U A135U belongs 0.42; to U19C A94G, 1.53; to A90G A94U, 1.93. In the case of C16G, the self-cleavage came out at 0.85. To A64U G75A belongs 0.1; to U2C A62G, 0.36. To A22U A129C belongs 1.58; to A89U U100C, 2.55. With A96G U100A, the self-cleavage was found to be 0.78. U9C U131C: the self-cleavage came out at 1.7. On to U108A U132A, for which the self-cleavage was 0.01. To C17U A27C belongs 0.44. To U131C A140G belongs 0.47; to U57A A68U, 1.15. Take A82U A140G: the self-cleavage is 0.23. To G48A U49C belongs 1.73; to C45U A51G, 1.58; to U49G, 1.13. To C101U U108C belongs 0.01. To C6U U26A belongs 0.53. A22U A69C: the self-cleavage turned out to be 0.47. To U19C A52U belongs 0.93; to G8A, 1.61; to A23G G75A, 0.19. Consider A55G G119C, for which the self-cleavage is 1.03. To U19A U87C belongs 0.97; to U49G A116G, 0.64. Consider A47G A135G, for which the self-cleavage stood at 1.27. To G31A A92G belongs 1.57. In the case of U2A U37C, the self-cleavage was 1.34. Regarding U2C U131A, the self-cleavage came to 1.39.

As to U2C U131C, the self-cleavage stood at 1.08. With A18G A23G, the self-cleavage is 1.01. To A82G A110G belongs 0.07; to G65A A126G, 1.12. Take A51U A55U: the self-cleavage turned out to be 1.52.

Turning to A23G U49C, the self-cleavage turned out to be 0.9.

For the variant U97C U122A, the self-cleavage was 1.65.

Regarding C32U U70C, the self-cleavage stood at 0.69. To A67U U127C belongs 1.01; to C6A A95G, 0.79; to C35A C61U, 1.59.

As to U70C A110G, the self-cleavage was 0.06. On to U49C U122G, for which the self-cleavage is 1.54. For the variant U49C U122A, the self-cleavage came to 1.33. In the case of U39C A92U, the self-cleavage was 1.99. To G79C U120A belongs 0.04. For the variant A22U U72A, the self-cleavage came out at 0.21.

Take A18G A62U: the self-cleavage is 2.16. As for A62U U132A, the self-cleavage came to 2.19. To A18G A94G belongs 1. To A64G G136U belongs 2.02; to A18G C101A, 0.06; to A22G U103A, 0.41. To A55U A59U belongs 1.92; to A36G U122A, 1.66; to U108A G123C, 0.01. Regarding A54G U100A, the self-cleavage amounted to 0.57. As to U9A A140U, the self-cleavage was 1.31.

G14A A54U: the self-cleavage was 1.55. G115A A118G: the self-cleavage was 0.04. Turning to A69G A89C, the self-cleavage was determined as 1.65. In the case of A96U U139C, the self-cleavage is 1.15. With A22G A126U, the self-cleavage came to 0.92.

As for U38C A90G, the self-cleavage was found to be 1.4.
